Key:
[1] = tested on: His-BcpT (recombinant N-terminal His-tagged BcpT without signal sequence)

doripain A activated with trypsin, DpnA(a)
cleavage and activation of BcpT (Coomassie gel, agar overlay) [1]: The active forms of both proteases cleave and activate BcpT
cleavage of BcpT site mutant (Western immunoblot) (His-BcpT R199N): both proteases can cleave BcpT^R199N at the R65 site, which FXa does not

doripain A, full-length recombinant proenzyme (not trypsin treated)
activation of BcpT (Coomassie gel, agar overlay) [1]: DpnA remains full-length and cannot activate BcpT

Factor Xa
cleavage by FXa (Coomassie gel) (His-BcpT R65N): is cleaved only at the R199 site
cleavage of His-tagged BcpT (Coomassie gel, N-terminal sequencing of fragments) [1]: FXa cleaves after R65 and R199 of two Leu-Thr-Arg (LTR) motifs
cleavage by FXa (Coomassie gel) (His-BcpT R199N): are not cleaved by FXa (other than releasing the His-tag)
cleavage by FXa (Coomassie gel) (His-BcpT R65N:R199N): are not cleaved by FXa (other than releasing the His-tag)

doripain B (DpnB)
cleavage and activation of BcpT (Coomassie gel, agar overlay) [1]: The active forms of both proteases cleave and activate BcpT
cleavage of BcpT site mutant (Western immunoblot) (His-BcpT R199N): both proteases can cleave BcpT^R199N at the R65 site, which FXa does not
